Source: the DeepSol protein solubility set

Assay: soluble on expression in E. coli; label from the status in PepcDB or PDB records

Sequence | soluble on expression in E. coli
MSLGKATGFLEFGRELPKKIDPAERIKNNKEFVLNQEFGKKINQQASRCMDCGVPFCHNGCPIGNIIPEFNDAVYRDSWEEAWNILSSTNNFPEFTGRVCPAPCETACVLGINQDPITICNIEKTIVERAYQEGYAKPKTPRSRTGKTVAIIGSGPAGLAAAEQLNAAGHSVTVFERDEKVGGLLRFGIPDFKLGMDVIDRKINLMEQAGVKFVVNAHIGVDINAQQLRQEFDAVLLTGGSTVPRDLSIPGRDLKGVYFAMQFLAQNNRRANGMDLKGEEIHAKGKHVVVIGGGDTGSDCVGTSNRHGAASITQVEIMPIPPQKRPVNMPWPQYPMILRTSTSHEEGCERHWNILTKEFIGNEQGEVTGLRIADIVWKDAAPGERPSFDEVVGSERVIPCDMAFLAMGFLHPEPHGVLAQLGIKLDERGNVATQDFATNQKGVFAAGDMRTGQSLVVRCINEGRECARAVDTFLMGNTHLEAKADSLMLSAEGHHHHHH | soluble
MSLGLSKTIWTNPAEYLRALSPEAPVLFFSPSTLQATARRFIDGFPGMVTYAVKSNPEEVVIENLAAAGIRGYDVASPHEIRMIRRIAPDAALHYNNPVRSRSEIGVGVEMGVKSWSVDSASELAKLIELVPAEGCEIAVRFKLAVSGAAYNFGAKFGATVELAVELLRRVAEAGFIPSMTFHPGTQCTDPAAWETYIRTAAEIARDAGVTIARLNVGGGFPSHRLNGVEPELEAIFHLIDRVTDEAFGADRPLLVCEPGRGICADAFTLAARIKAVRDDAHVFLNDGVYGSLTELPMIGVIDRVAVLTPEGRRRDGETRDRIIFGPTCDSVDRLPGELPLAADVEEGDFLVFQGMGAYSAATNTRFNGFGELSMATVLSLKEGHHHHHH | soluble
MSLGMRDVAKEAGVSLSTVSLVVNKTGYVSDDMRARVEAAMKELNYVPNELARNLYKNRTNLVGVIVPTIRHPFFATLTAHLQRELAAQGLRTMLCSTADAENGEVEYVDMLRRHMMDGIIVCSHTTHPNDYWTSIHRPIVAFDRVLGGGIASIGSDHEQGGRLMAHMLVNTGAHHVVMIGGPRDQFFDLAARNGDSPDDFDLHKTTFPTVRYYLALEQELKAAGVRYEYVEAGNVEDFQGYKNAVNAVLNSMPVDGVDAVVSSDIGAALCVREAMRRHISIPRDLQIIAYDGTYLTDLAGMKMTAVAQNFDKIAQVAVGNIVRAIAKEGDAKADTTSATGRKPYEPDVLIPVTLKLGDTTREGHHHHHH | soluble
MSLGSIITLYSPVGGIGKSTIAIEMAKKLSDSNKKVLYLNLEDLQSTLVFFECSTSKNMSDFLYFIKERDENFKEVLKDIVLKDEESGINYFAPVDSVLDIEDLKVDDVKFMLQKLIEVNMYNYIIIDLSSTFNINYKTIFEMSSKIIVPIGQDKLSSVKLQNFLKQLDNLENFSFIQNKYKDNLETIIPHVLLREKKPIIQKIYYDEALESVSSLIYLKNRASTFLRCIDELIMKLLEGHHHHHH | soluble
MSLGSKIVVTGATGNVGTSVVRLLSEDPEVGTVLGLARRIPDWSPAKTEWAAVDLASEQSDLTSHFADADAVVHLAWAFQPTHDPATTWRTNVLGSIRVFEAVAAAGVPALVHASSVGAYSPGPKNHAVDESWPTHGWPDAAYCREKAYLERALDTFERDHPGIRVVRMRPAFLFKRESASEQRRIFGGRFLPGPAARPELLPFLPDVPGLRVQALHTDDAARAYRLAVRSADARGAFNLAAEPPVDAELLGELLGVRPVRLPRAAARSAIAAAWGMRLLPASPHLFDAVLRLPVMDCTRARVELGWGATRTATEVLEEFLRGLRQGAGADTEGHHHHHH | soluble
MSLGSMGFIESEVAVVYGRIVEGFRAPYKEDLYFKTVIVPGFSDGHMHTQVVDAGLEPSRVWSNSYEWLETRRLRVDEAAVRSDLDLSSRLAAAAFSRSLLEGVTLVAATGRLSANVRGWLSLTSRPRAIFLPTVMDRAGWPSIREVEVEIERLEGLLRDGLAKIGVFVHSLGTAKPESVRRALQTAARRRSIMGMHLSEGLPEAGRLVDVLGRGPYPARIVAVHCMEVEDLPTGVRCVSCPASNQILYRRTRPTLEGVDGFGSDWPLLIGTIARHLPLINKLYPGRLQEILYKATIGGYRAYLALHDGDFVAYDASLEDVLAGRALPVWVSVAGKPAVVEGRLSGSGYGYGEVLSIIRRLIKEALEKHGDGSLPYIPDVESMYEASLALEGGPRSEGHHHHHH | not soluble
MSLGTDLLESGEGNKYLVVEKHLKQAINGGVYQADDRLPSIRSLSQELNVSKNTVIRAYQELEAQNLVYSVPKSGYRVKVALPTSRSIPDPTRVDLLSICKEILTYPEYQERLPAGSAHPNIDSPAIKSLYAEIGRHSRQQTHVPSHYQLPPGDHLLIKQLAKITQDLGTPAKLDEIMVTHGAQQAISLALRATTQKGDIVAVESPCYFGNLLMLESLGLKVVEIPSCPRDGMCPEALAKTMATWDIKALIVTPNFTNPTGAMMPLEKRQQLLLASGNIPIIEDDVFGGLSYDKPLPSLSLLDDKQRVIYVNSLSKTLDSRLRIGWMLAGRYRDQIEQYLLCENMGSLNLMQSAVATFLTSGKYRTHTARMGRVYQNNMRRFIQMLHQYLDEYESLKNRYQINAVQGSFLLWLRLPEDTDSYALYQACNKHRISLLPGTVFGTQEQYRHCVRLSVANFGHETDWSHAMQTLAKLIAKRVCEGHHHHHH | not soluble
MSLGTGRNGGRAIVATGLGQCCWDTLAVVDSYPSPDSKAEAAVWAEQAGGPTATALVALARLGIPCRFAGVVGDDDAGSRIRQALDSEGVDGAFLVTRRRGASQRAFIMIERGSGRRTIVWRRPTGDPLDPREVPDAFLAGSSLLLLDGLMADASLHAAGRARSLGIPVMVDAGRMRPGMLDITRQCDYVVAAEQFFLDLGWDRTPEHFRGLAADLGAPVVTVTLGAAGSLTWSGHEPFHVPAFTVDAVDTTGAGDVFHGGYGYGILQGWSVRETVVFASAMAAMKCRQVGAQQGIPRLPDVLEFLTRRTITVLSNPQTEGHHHHHH | soluble
MSLHRLNLNGYEPDRHHEAAVAFCIHAGTDELTSPVHQHRKGQLILALHGAITCTVENALWMVPPQYAVWIPGGVKHSNQVTANAELCFLFIEPSAVTMPTTCCTLKISPLCRELILTLANRTTTQRAEPMTRRLIQVLFDELPQQPQQQLHLPVSSHPKIRTMVEMMAKEPVEWGSLGQWAGFFAMSERNLARLIVKETGLSFRQWRQQLQLIMALQGLVKGDTVQKVAHTLGYDSTTAFITMFKKGLGQTPGRYIAGLTTVSPQSAKPDPREGHHHHHH | soluble
MSLHSYDYDAIVIGSGPGGEGAAMGLVKQGARVAVIERYQNVGGGCTHWGTIPSKALRHAVSRIIEFNQNPLYSDHSRLLRSSFADILNHADNVINQQTRMRQGFYERNHCEILQGNARFVDEHTLALDCPDGSVETLTAEKFVIACGSRPYHPTDVDFTHPRIYDSDSILSMHHEPRHVLIYGAGVIGCEYASIFRGMDVKVDLINTRDRLLAFLDQEMSDSLSYHFWNSGVVIRHNEEYEKIEGCDDGVIMHLKSGKKLKADCLLYANGRTGNTDSLALQNIGLETDSRGQLKVNSMYQTAQPHVYAVGDVIGYPSLASAAYDQGRIAAQALVKGEANAHLIEDIPTGIYTIPEISSVGKTEQQLTAMKVPYEVGRAQFKHLARAQIVGMNVGTLKILFHRETKEILGIHCFGERAAEIIHIGQAIMEQKGGGNTIEYFVNTTFNYPTMAEAYRVAALNGLNRLFEGHHHHHH | soluble
MSLIAIYVRVSTEEQAIKGSSIDSQIEACIKKAGTKDVLKYADEGFSGELLERPALNRLREDASKGLISQVICYDPDRLSRKLMNQLIIDDELRKRNIPLIFVNGEYANSPEGQLFFAMRGAISEFEKAKIKERTSSGRLQKMKKGMIIKDSKLYGYKFVKEKRTLEILEEEAKIIRMIFNYFTDHKSPFFGRVNGIALHLTQMGVKTKKGAKVWHRQVVRQILMNSSYKGEHRQYKYDTEGSYVSKQAGNKSIIKIRPEEEQITVTIPAIVPAEQWDYAQELLGQSKREGHHHHHH | soluble
MSLIDIHNHILPNIDDGPTNETEMMDLLKQATTQGVTEIIVTSHHLHPRYTTPIEKVKSCLNHIESLEEVQALNLKFYYGQEIRITDQILNDIDRKVITGINDSRYLLIEFPSNEVPHYTDQLFFELQSKGFVPIIAHPERNKAISQNLDILYDLINKGALSQVTTASLAGISGKKIRKLAIQMIENNLTHFIGSDAHNTEIRPFLMKDLFNDKKLRDYYEDMNGFISNAKLVVDDKKIPKRMPQQDYKQKRWFGLEGHHHHHH | soluble
MSLIDKSSEIARFSGKGILITPKTLEKPLLKWEKLEIILYKDKIVFEFVDKTIEVGVEDIEDVGAELPKKVIDIAKSTLEDITYHSSIIIKSKEFGNVMVGFAPETSIYGKAPIDNFLRKLFYILLNKKEVKILYNAGENSENTKWENGFLTFIKKRIKDGLVTKIEYRLVVEILDNEDSKIYDIFSNIKDVEIEEKDVDGEIEPVLKILQVKDGKDIISYLYTKDKKVRLFILRYMVILLDYKYIGILRYLQETVEEGHHHHHH | soluble
MSLILFFYFMVLSEACMRTVAPEDVYISSTFPFEDFTTEAVVTTDSSTISQLTTETTMETVETHIFYVTCKNRYPISNRNCLINRHTDDFFCFILPVDACMRTVPPEDVYISITLPYEDFTTESNEIAVTTDSSTVPQLVTETTEIPTATTTPGWSSKTELHWKISKILNTK | not soluble
MSLIPIVASSPSPLISGDGDDALRQIGLLHERSAPLGAMMIDHGPDIGERSPVFSMTTIDGVPVTVGRAVSPGRPSLLMFTGPSCPICQKLLPIIRSVAATEGADVILISDGTQAEHREFLRNHPLDGEHYVVSAEIGMRYQVSKVPYGVLLDKDGVIQAKGLCNTREHVESLFETTRVGHSTLQNFLKHGVEDASKHEGHHHHHH | soluble
MSLIRPQLDDIQTAQAQEKNLLNEFREKQSKLRNLQQYQHQLEEMRASFNQQLTQLPKESEIPGLVEDINMTGVNSGLKFKNIRLENEVKQEFFIEQPISIEATGDYHAFGAFVSGIAALPRIVTLHDFVIEAKQSKEKTDIPEVDYAVKAKTYRYIGVDEQGNASAVQANTSTTTPAQGGTPEGHHHHHH | soluble
MSLIVVKIGGRVVKNSLDKIILDILNINDKVILVHGGGDIVTDYTKRLGIEPVFVTSPEGIRSRYTTKEELEVYIMAMSLINKSITSKLCSLGKNAIGITGVDGGLLLAERKKRIVVIDERGKKRIIEGGYTGKVKEVRSEIINHLVKLFDIIVVSPIALDVEERTPLNIDGDQAAFAISKALRANVLILLSDVEGVLVEGKVINRLTPSEAKELSKKIGPGMNRKLLMAAESVENGVNKVIIGSGVKDRPIINALELNGTVIANGEGHHHHHH | soluble
MSLIYFETERLIARDYLERDYLPFSQMNADEEVMKYFPARLTQVESNALLDRNQKELTSLGYGLFAIEVKSTNEFIGFTGLHEATFEAEFTPCIEIGWRLKRSAWNQGFATEAALGVLAFAKGITAINEIYSFTATCNKPSEKVMRKIHLTKIADFEHPALINGNPLKPHVLYKAEGHHHHHH | not soluble
MSLKDITLQVALPKFGYKENVKSFVLEVIAKDSSFWNFFSGNEARKQIAVLVDNTAPKINIISNSYQIEQGGAGAVVFKADDANLDKVYIETNKGKIFKATPYVKEGYYAALIAWDARDEEFRAFVIATDKAGNISKERIRYYFVNRKYRVSNINLTDKFLDGKIENLANQYAPKDNNLNRYEKFKFVNETLRNSNEKLIHEITSKVPEEKIDNFDLNLFLPLKNGMKVADFADHRYYSYNGQFVSDSYHMGLDLASVAQAPIISNNAGKVVFAAENGIYGLNLIVYHGFGVYSLYGHCSSKNVDLDEMINKQSIIGKTGTSGLALGDHLHFGVLVQGVETRPEQWQDKKWIENNIYNVLNDGKKIILGKNEGHHHHHH | not soluble
